Data taken from patent publication US20110039770A1, “INHIBITORS OF PROTEIN KINASE C ISOFORMS AND USES THEREOF” (PHARMAGAP INC., priority 2005, published 2011).
Each block holds one binder with its values, some of them ahead of it. Where no end group is shown, it is not given here.

What was measured:
PKC-ζ, purified isoform [1] = target: PKC-ζ, purified isoform (UniProt Q05513); test: competition ELISA on coated purified PKC-ζ vs anti-PKC ζ antibody; PRE 200 µM
PKC-ζ, purified isoform [2] = target: PKC-ζ, purified isoform (UniProt Q05513); test: competition ELISA on coated purified PKC-ζ vs anti-PKC ζ antibody; PRE 50 µM
PKC-ζ, purified isoform [3] = target: PKC-ζ, purified isoform (UniProt Q05513); test: competition ELISA on coated purified PKC-ζ vs anti-PKC ζ antibody; PRE 100 µM
[4] = target: PKC-ζ, purified isoform, Q05513; test: cell-based or functional assay
[5] = target: PKC-δ, purified isoform, Q05655; test: cell-based or functional assay
PKC-δ, Q05655 = test: cell-based or functional assay
[6] = target: PKC-β (endogenous, IMR-32 lysate) (human) (UniProt P05771); test: WB competition Protocol B, IMR-32 extract, vs anti-PKC-β Ab; 300 µg peptide
[7] = target: PKC-β (endogenous, IMR-32 lysate) (human) (UniProt P05771); test: WB competition Protocol B, IMR-32 extract, vs anti-PKC-β Ab; 200 µg peptide
[8] = target: PKC-β (endogenous, IMR-32 lysate) (human) (UniProt P05771); test: WB competition Protocol A, IMR-32 lysate, vs anti-PKC-β Ab; 300 µg peptide
[9] = target: PKC-β (endogenous, IMR-32 lysate) (human) (UniProt P05771); test: WB competition Protocol B, IMR-32 extract, vs anti-PKC-β Ab; 100 µg peptide
[10] = target: PKC-β (endogenous, IMR-32 lysate) (human) (UniProt P05771); test: WB competition Protocol A, IMR-32 lysate, vs anti-PKC-β Ab; 75 µg peptide
[11] = target: PKC-β (endogenous, IMR-32 lysate) (human) (UniProt P05771); test: WB competition Protocol A, IMR-32 lysate, vs anti-PKC-β Ab; 600 µg peptide
[12] = target: PKC-βI (purified isoform) (Homo sapiens (Human)), P05771; test: competitive ELISA, coated purified PKC-βI, vs anti-PKC βI (SC-209); PRE 200 µM; conditions: remark: other sources report otherwise
[13] = target: PKC-βI (purified isoform) (Homo sapiens (Human)), P05771; test: competitive ELISA, coated purified PKC-βI, vs anti-PKC βI (SC-209); PRE 50 µM; conditions: remark: other sources report otherwise
[14] = target: PKC-βI (purified isoform) (Homo sapiens (Human)), P05771; test: competitive ELISA, coated purified PKC-βI, vs anti-PKC βI (SC-209); PRE 100 µM; conditions: remark: other sources report otherwise
[15] = target: PKC-βI (purified isoform) (Homo sapiens (Human)) (UniProt P05771); test: competitive ELISA, coated purified PKC-βI, vs anti-PKC βI (SC-209); PRE 50 µM
[16] = target: PKC-βI (purified isoform) (Homo sapiens (Human)) (UniProt P05771); test: competitive ELISA, coated purified PKC-βI, vs anti-PKC βI (SC-209); PRE 100 µM
[17] = target: PKC-βI (purified isoform) (Homo sapiens (Human)) (UniProt P05771); test: competitive ELISA, coated purified PKC-βI, vs anti-PKC βI (SC-209); PRE 200 µM

Chain of PKC-δ, Q05655 (Q05655 whole entry, stated change not applied): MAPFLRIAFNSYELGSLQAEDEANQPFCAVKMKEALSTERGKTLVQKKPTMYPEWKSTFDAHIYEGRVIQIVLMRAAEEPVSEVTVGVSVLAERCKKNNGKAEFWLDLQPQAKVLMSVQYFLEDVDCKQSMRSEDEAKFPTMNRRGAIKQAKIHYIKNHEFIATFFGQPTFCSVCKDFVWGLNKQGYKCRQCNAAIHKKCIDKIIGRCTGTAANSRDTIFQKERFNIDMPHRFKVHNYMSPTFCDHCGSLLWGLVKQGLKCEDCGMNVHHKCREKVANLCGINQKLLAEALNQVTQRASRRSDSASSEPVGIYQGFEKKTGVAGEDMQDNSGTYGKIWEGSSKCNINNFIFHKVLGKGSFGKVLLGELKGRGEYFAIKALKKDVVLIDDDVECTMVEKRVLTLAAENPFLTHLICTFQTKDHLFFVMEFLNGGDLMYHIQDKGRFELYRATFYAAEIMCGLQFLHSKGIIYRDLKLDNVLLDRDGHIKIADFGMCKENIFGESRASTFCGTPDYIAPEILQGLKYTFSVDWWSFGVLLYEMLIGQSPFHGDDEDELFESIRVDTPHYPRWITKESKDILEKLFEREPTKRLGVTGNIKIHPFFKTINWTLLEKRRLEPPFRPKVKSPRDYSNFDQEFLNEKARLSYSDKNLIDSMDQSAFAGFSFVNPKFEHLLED
Chain of PKC-δ, purified isoform, Q05655 (Q05655 whole entry, stated change not applied, canonical isoform): as the sequence (Q05655 whole entry, stated change not applied) above
Chain of PKC-β (endogenous, IMR-32 lysate) (human) (P05771 2-671): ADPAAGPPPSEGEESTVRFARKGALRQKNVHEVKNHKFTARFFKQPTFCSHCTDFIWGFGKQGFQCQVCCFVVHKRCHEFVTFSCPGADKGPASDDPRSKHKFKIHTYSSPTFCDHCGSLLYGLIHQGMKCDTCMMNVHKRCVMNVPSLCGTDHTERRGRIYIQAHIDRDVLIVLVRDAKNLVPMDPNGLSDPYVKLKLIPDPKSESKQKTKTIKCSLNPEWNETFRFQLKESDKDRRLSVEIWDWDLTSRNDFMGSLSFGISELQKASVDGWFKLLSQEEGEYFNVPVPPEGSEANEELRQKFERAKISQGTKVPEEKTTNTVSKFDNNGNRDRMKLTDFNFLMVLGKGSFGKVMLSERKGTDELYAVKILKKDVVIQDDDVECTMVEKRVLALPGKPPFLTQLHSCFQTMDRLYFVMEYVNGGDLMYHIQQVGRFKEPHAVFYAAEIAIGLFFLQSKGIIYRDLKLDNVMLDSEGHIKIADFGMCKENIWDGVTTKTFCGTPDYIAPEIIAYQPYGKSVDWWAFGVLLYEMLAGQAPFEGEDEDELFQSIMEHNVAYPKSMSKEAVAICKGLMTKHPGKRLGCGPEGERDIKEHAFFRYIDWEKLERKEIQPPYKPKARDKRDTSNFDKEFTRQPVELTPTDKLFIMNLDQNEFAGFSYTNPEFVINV
Chain of PKC-βI (purified isoform) (Homo sapiens (Human)), P05771 (P05771 2-671 limits assumed): as the sequence (P05771 2-671) above
Chain of PKC-βI (purified isoform) (Homo sapiens (Human)) (P05771 2-671 limits assumed): as the sequence (P05771 2-671) above
Chain of PKC-ζ, purified isoform (Q05513 whole entry, canonical isoform): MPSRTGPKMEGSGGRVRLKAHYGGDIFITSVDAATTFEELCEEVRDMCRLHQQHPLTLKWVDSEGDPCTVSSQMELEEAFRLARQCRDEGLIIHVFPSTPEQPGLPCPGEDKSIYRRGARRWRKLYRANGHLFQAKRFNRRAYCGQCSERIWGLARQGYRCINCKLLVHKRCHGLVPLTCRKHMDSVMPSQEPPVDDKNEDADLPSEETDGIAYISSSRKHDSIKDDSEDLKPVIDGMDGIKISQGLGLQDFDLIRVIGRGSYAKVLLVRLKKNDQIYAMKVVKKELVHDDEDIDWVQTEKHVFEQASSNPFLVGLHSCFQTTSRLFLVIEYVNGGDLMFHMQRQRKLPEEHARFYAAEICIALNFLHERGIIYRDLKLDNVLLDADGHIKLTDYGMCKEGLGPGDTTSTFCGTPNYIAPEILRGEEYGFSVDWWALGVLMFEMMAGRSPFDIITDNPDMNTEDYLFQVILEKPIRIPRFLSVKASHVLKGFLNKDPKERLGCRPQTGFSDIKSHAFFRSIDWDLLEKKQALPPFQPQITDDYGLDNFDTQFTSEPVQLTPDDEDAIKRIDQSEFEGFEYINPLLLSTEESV
Chain of PKC-ζ, purified isoform, Q05513 (Q05513 whole entry, canonical isoform): as above

Binder: Ac-RDAQNLI-NH2 [PRE 13]
relative binding capacity (PKC-ζ, purified isoform [1]): 4.29%
relative binding capacity (PKC-ζ, purified isoform [2]): 0%
relative binding capacity (PKC-ζ, purified isoform [3]): 0%

Binder: Ac-FRRCFRLGGGGGGGRRKKGGKDFVVKR-NH2 [Compound TIM 20 (PRE 1 and PKI 4)]
% Inhibition of kinase activity (Kinase-Glo), compound at 5.0 µM (PKC-δ, Q05655): 46%
% Inhibition of kinase activity (Kinase-Glo), compound at 30.0 µM (PKC-δ, Q05655): 45.4%

Binder: Ac-KDANQLIGISI-NH2 [PRE 6]
relative binding capacity (PKC-ζ, purified isoform [1]): 0%
relative binding capacity (PKC-ζ, purified isoform [2]): 0%
relative binding capacity (PKC-ζ, purified isoform [3]): 0%

Binder: KDAQNLIGISL-NH2 [PRE 2]
Band Intensity [6]: 0
Inhibition (%) [6]: 100%
Relative Intensity (%) [6]: 0%
Band Intensity [7]: 0
Inhibition (%) [7]: 100%
Relative Intensity (%) [7]: 0%
Band Intensity [8]: 0.403
Inhibition (%) [8]: 65.3%
Relative Intensity (%) [8]: 34.7%
Band Intensity [9]: 0.0322
Inhibition (%) [9]: 54.7%
Relative Intensity (%) [9]: 45.3%
Band Intensity [10]: 0.8
Inhibition (%) [10]: 31%
Relative Intensity (%) [10]: 69%

Binder: Ac-AKGIQEVKGGDAQNLIGISI-NH2 [PRE 3]
Band Intensity [6]: 0
Inhibition (%) [6]: 100%
Relative Intensity (%) [6]: 0%
Band Intensity [7]: 0
Inhibition (%) [7]: 100%
Relative Intensity (%) [7]: 0%
Band Intensity [8]: 1.9
Inhibition (%) [8]: 0%
Relative Intensity (%) [8]: 102%
Band Intensity [9]: 0
Inhibition (%) [9]: 100%
Relative Intensity (%) [9]: 0%
relative binding capacity (PKC-ζ, purified isoform [1]): 29.1%
Band Intensity [11]: 1.85
Inhibition (%) [11]: 0%
Relative Intensity (%) [11]: 99.6%
relative binding capacity (PKC-ζ, purified isoform [2]): 14%
Band Intensity [10]: 1.9
Inhibition (%) [10]: 0%
Relative Intensity (%) [10]: 102%
relative binding capacity (PKC-ζ, purified isoform [3]): 23.9%

Binder: Ac-ISIGILNQADK-NH2 [PRE 10]
relative binding capacity (PKC-ζ, purified isoform [1]): 0%
relative binding capacity (PKC-ζ, purified isoform [2]): 0%
relative binding capacity (PKC-ζ, purified isoform [3]): 0%

Binder: Ac-KDAQNLI-NH2 [PRE 12]
relative binding capacity (PKC-ζ, purified isoform [1]): 0.33%
relative binding capacity (PKC-ζ, purified isoform [2]): 4.2%
relative binding capacity (PKC-ζ, purified isoform [3]): 8.77%

Continued, values first:

relative binding capacity (PKC-ζ, purified isoform [1]): 0%
relative binding capacity (PKC-ζ, purified isoform [2]): 0%
relative binding capacity (PKC-ζ, purified isoform [3]): 0%
Binder: Ac-RDAQNLIGISI-NH2 [PRE 11]

% Inhibition of PKC activity at 150 µM [4]: 60%
% Inhibition of PKC activity at 300 µM [4]: 60%
% Inhibition of PKC activity at 600 µM [4]: 58%
% Inhibition of PKC activity at 150 µM [5]: 90%
% Inhibition of PKC activity at 300 µM [5]: 90%
% Inhibition of PKC activity at 600 µM [5]: 95%
Binder: FRRCFRL [compound PKI 4]

relative binding capacity (PKC-ζ, purified isoform [1]): 0%
relative binding capacity (PKC-ζ, purified isoform [2]): 0%
relative binding capacity (PKC-ζ, purified isoform [3]): 0%
Binder: Ac-AKGIQEVKGGKDAQNLIGISI-NH2 [PRE 5]

relative binding capacity (PKC-ζ, purified isoform [1]): 5.85%
relative binding capacity (PKC-ζ, purified isoform [2]): 0%
relative binding capacity (PKC-ζ, purified isoform [3]): 0%
Binder: Ac-KDAQNLIGISI-NH2 [PRE 4]

% Inhibition of kinase activity (Kinase-Glo), compound at 5.0 µM (PKC-δ, Q05655): 56.3%
% Inhibition of kinase activity (Kinase-Glo), compound at 30.0 µM (PKC-δ, Q05655): 85.1%
Binder: Ac-FRRCFRLGGGGGGGAKGIQEVKGGDAQNLIGISI-NH2 [Compound TIM 18 (PRE 3 and PKI 4)]

Band Intensity [8]: 0.528
Inhibition (%) [8]: 54.5%
Relative Intensity (%) [8]: 45.5%
Band Intensity [10]: 0.825
Inhibition (%) [10]: 28.9%
Relative Intensity (%) [10]: 71.1%
Binder: RRKKGGKDFVVKR [PRE 1]

relative binding capacity (100-%n, DMSO subtracted) [12]: 0%
relative binding capacity (100-%n, DMSO subtracted) [13]: 0%
relative binding capacity (100-%n, DMSO subtracted) [14]: 0%
Binder: ILEDKGGDAQNLIGISI [PRE 8]

% Inhibition of PKC activity at 150 µM [4]: 37%
% Inhibition of PKC activity at 300 µM [4]: 40%
% Inhibition of PKC activity at 600 µM [4]: 56%
% Inhibition of PKC activity at 150 µM [5]: 32%
% Inhibition of PKC activity at 300 µM [5]: 41%
% Inhibition of PKC activity at 600 µM [5]: 70%
Binder: FRRK(adenine PNA)FRL [compound PKI 3]

relative binding capacity (100-%n, DMSO subtracted) [15]: 2.1%
relative binding capacity (100-%n, DMSO subtracted) [16]: 0%
relative binding capacity (100-%n, DMSO subtracted) [17]: 0%
relative binding capacity (PKC-ζ, purified isoform [1]): 1.54%
relative binding capacity (PKC-ζ, purified isoform [2]): 1.83%
relative binding capacity (PKC-ζ, purified isoform [3]): 0%
Binder: Ac-ISIGILQNADK-NH2 [PRE 7]
